Each block holds one substance with its values, some of them ahead of it.
Assays:
[1] = SEC; each antibody alone at 100 mg/mL (second study also 50 mg/mL) in 20 mM acetate, 9% sucrose, 0.01% polysorbate 80, pH 5.2, stored at 40°C (also 25°C) up to 12 weeks; diluted 100-fold before SE-HPLC; TSKgel G3000SWxl, 0.2 M sodium phosphate pH 6.8, column at 30°C; dimer and multimer defined by …
[2] = target: 3BNC117; assay: SEC; each antibody alone, stored at 30°C; data not shown
[3] = target: 3BNC117; assay: SEC; each antibody alone at 100 mg/mL (second study also 50 mg/mL) in 20 mM acetate, 9% sucrose, 0.01% polysorbate 80, pH 5.2, stored at 40°C (also 25°C) up to 12 weeks; diluted 100-fold before SE-HPLC; TSKgel G3000SWxl, 0.2 M sodium phosphate pH 6.8, column at 30°C; dimer and multimer defined by elution time relative to the monomer
[4] = target: PGT121; assay: SEC; each antibody alone, stored at 30°C; data not shown

Substance: 3BNC117
increase of the dimer's share of the SE-HPLC area against day 0 (12 weeks, 40°C) [1]: ∼6% increase compared to day 0 at 40 °C

stoichiometry N [2]: 2
rate of dimer formation at 40°C relative to PGT121 [3]: 3.5 fold
stoichiometry N [3]: 2
Substance: 3BNC117 (antibody)

Substance: PGT121
increase of the multimers' share of the SE-HPLC area against day 0 (12 weeks, 40°C) [1]: ∼3% increase compared to day 0 at 40 °C

stoichiometry N [4]: 2
Substance: PGT121 (antibody)

Reference: paper PMC6269598
